The text below walks through data of patent US20230192896A1 (BIOVERATIV THERAPEUTICS, published 2023).

First the molecules themselves.
B1: BIIB-12-922 (antibody, V domains shown)
VH: QVQLVQSGAEVKKPGASVKVSCKASGYTFTSYYMHWVRQAPGQGLEWMGIINPSGGSTSYAQKFQGRVTMTRDTSTSTVYMELSSLRSEDTAVYYCARRGRIAGMWGQGTTVTVSS
VL: not shown
notes: IgG
B2: BIIB-12-911 (antibody, V domains shown)
VH: QVQLVESGGGVVQPGRSLRLSCAASGFTFSSYGMHWVRQAPGKGLEWVAVISYDGSNKYYADSVKGRFTISRDNSKNTLYLQMNSLRAEDTAVYYCARGRGMDVWGQGTTVTVSS
VL: EIVLTQSPATLSLSPGERATLSCRASQSVSSYLAWYQQKPGQAPRLLIYDASNRATGIPARFSGSGSGTDFTLTISSLEPEDFAVYYCQQRSNFPITFGGGTKVEIK
notes: IgG
B3: BIIB-12-913 (antibody, V domains shown)
VH: QVQLVQSGAEVKKPGASVKVSCKASGYTFTSYGISWVRQAPGQGLEWMGWISAYNGNTNYAQKLQGRVTMTTDTSTSTAYMELRSLRSDDTAVYYCARGGVSRFWGQGTLVTVSS
VL: EIVMTQSPATLSVSPGERATLSCRASQSVSSNLAWYQQKPGQAPRLLIYGASTRATGIPARFSGSGSGTEFTLTISSLQSEDFAVYYCQQYAPYPPLTFGGGTKVEIK
notes: IgG
B4: BIIB-12-919 (antibody, V domains shown)
VH: QVQLVQSGAEVKKPGASVKVSCKASGYTFTSYYMHWVRQAPGQGLEWMGVINPSGGSTSYAQKFQGRVTMTRDTSTSTVYMELSSLRSEDTAVYYCARGANIAVGRRYADYWGQGTLVTVSS
VL: DIQMTQSPSTLSASVGDRVTITCRASQSISSWLAWYQQKPGKAPKLLIYKASSLESGVPSRFSGSGSGTEFTLTISSLQPDDFATYYCQQVSSYPTFGGGTKVEIK
notes: IgG
B5: BIIB-12-909 (antibody, V domains shown)
VH: QVQLVESGGGVVQPGRSLRLSCAASGFTFSSYGMHWVRQAPGKGLEWVAVISYDGSNKYYADSVKGRFTISRDNSKNTLYLQMNSLRAEDTAVYYCAKGKHRRRSFDIWGQGTMVTVSS
VL: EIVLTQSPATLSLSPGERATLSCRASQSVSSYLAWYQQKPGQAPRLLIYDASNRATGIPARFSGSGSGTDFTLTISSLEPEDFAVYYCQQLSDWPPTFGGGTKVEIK
notes: IgG
B6: BIIB-12-1314 (antibody, V domains shown)
VH: QVQLVESGGGVVQPGRSLRLSCAASGFTFSSYGMHWVRQAPGKGLEWVAVISYDGSNKYYADSVKGRFTISRDNSKNTLYLQMNSLRAEDTAVYYCAKGTRWAGNWGQGTLVTVSS
VL: DIQMTQSPSSVSASVGDRVTITCRASQGISSWLAWYQQKPGKAPKLLIYAASSLQSGVPSRFSGSGSGTDFTLTISSLQPEDFATYYCQQANFFPITFGGGTKVEIK
notes: IgG
B7: BIIB-12-924 (antibody, V domains shown)
VH: B5 VH with H101S, R102S, R103E, S105G, F106L, D107N, I108P, M114L
VL: B6 VL with A91G, F93S, I96L
notes: IgG
B8: BIIB-12-916 (antibody, V domains shown)
VH: QVQLVQSGAEVKKPGASVKVSCKASGYTFTSYYMHWVRQAPGQGLEWMGIINPSGGSTSYAQKFQGRVTMTRDTSTSTVYMELSSLRSEDTAVYYCARGGRQKATRRVDVWGQGTVVTVSS
VL: B6 VL with V11L, G28S, W32Y, A34N, A91L, N92A, F93I, F94T, I96F
notes: IgG
B9: BIIB-12-918 (antibody, V domains shown)
VH: QVQLVESGGGVVQPGRSLRLSCAASGFTFSSYGMHWVRQAPGKGLEWVAVISYDGSNKYYADSVKGRFTISRDNSKNTLYLQMNSLRAEDTAVYYCAKSLGGRSFDIWGQGTMVTVSS
VL: B6 VL with V11L, G28S, S31R, W32Y, A34N, A91I, N92F, F93S, F94L
notes: IgG
B10: BIIB-12-910 (antibody, V domains shown)
VH: QVQLQESGPGLVKPSQTLSLTCTVSGGSISSGGYYWSWIRQHPGKGLEWIGSIYYSGSTYYNPSLKSRVTISVDTSKNQFSLKLSSVTAADTAVYYCARGPLQRQVRYFDLWGRGTLVTVSS
VL: B6 VL with V11L, G28S, W32Y, A34N, A91L, N92S, F93H, F94T, I96F
notes: IgG
B11: BIIB-12-921 (antibody, V domains shown)
VH: QVQLVESGGGVVQPGRSLRLSCAASGFTFSSYGMHWVRQAPGKGLEWVAVISYDGSNKYYADSVKGRFTISRDNSKNTLYLQMNSLRAEDTAVYYCAKVGDRGTRAFDPWGQGTLVTVSS
VL: B6 VL with S31R, A91G, F93V, I96L
notes: IgG
B12: BIIB-12-1300 (antibody, V domains shown)
VH: B6 VH with K98R, T100S, R101K, W102Y, A103L, G104H, N105A
VL: B6 VL with N92S, F93S, I96P
notes: IgG
B13: BIIB-12-1309 (antibody, V domains shown)
VH: B5 VH with K98R, K100R, H101Y, R102T, R103S, S105Y, D107Q, I108H, M114L
VL: B6 VL with F93S, F94L
notes: IgG
B14: BIIB-12-908 (antibody, V domains shown)
VH: B6 VH with T100P, W102G, A103M, G104D, N105V, L111T
VL: B6 VL with M4L, A50G, A91G, N92S, F93S, F94L
notes: IgG
B15: BIIB-12-915 (antibody, V domains shown)
VH: QLQLQESGPGLVKPSETLSLTCTVSGGSISSSRYYWGWIRQPPGKGLEWIGSIYYSGSTYYNPSLKSRVTISVDTSKNQFSLKLSSVTAADTAVYYCARVGGGYANPWGQGTLVTVSS
VL: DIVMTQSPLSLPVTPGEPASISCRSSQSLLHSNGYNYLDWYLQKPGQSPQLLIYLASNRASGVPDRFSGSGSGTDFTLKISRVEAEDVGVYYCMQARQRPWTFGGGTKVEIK
notes: IgG
B16: BIIB-12-914 (antibody, V domains shown)
VH: QVQLVQSGAEVKKPGASVKVSCKASGYTFTSYYMHWVRQAPGQGLEWMGIINPSGGSTSYAQKFQGRVTMTRDTSTSTVYMELSSLRSEDTAVYYCARAPRYRGTMDVWGQGTTVTVSS
VL: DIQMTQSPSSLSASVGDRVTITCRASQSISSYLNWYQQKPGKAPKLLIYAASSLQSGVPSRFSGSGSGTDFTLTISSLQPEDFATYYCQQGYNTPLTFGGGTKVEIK
notes: IgG; also called BIB-12-914
B17: BIIB-12-920 (antibody, V domains shown)
VH: QVQLVQSGAEVKKPGASVKVSCKASGYTFTSYGISWVRQAPGQGLEWMGWISPYNGNTNYAQKLQGRVTMTTDTSTSTAYMELRSLRSDDTAVYYCARGSGHTTMFWGQGTLVTVSS
VL: EIVMTQSPATLSVSPGERATLSCRASQSVSSNLAWYQQKPGQAPRLLIYSASTRATGIPARFSGSGSGTEFTLTISSLQSEDFAVYYCQQANAYPPTFGGGTKVEI
notes: IgG
B18: BIIB-12-923 (antibody, V domains shown)
VH: QVQLVQSGAEVKKPGASVKVSCKASGYTFTSYYMHWVRQAPGQGLEWMGIINPSGGSTSYAQKFQGRVTMTRDTSTSTVYMELSSLRSEDTAVYYCARGAGYLQRAFDIWGQGTMVTVSS
VL: DIQMTQSPSTLSASVGDRVTITCRASQSISSWLAWYQQKPGKAPKLLIYKASSLESGVPSRFSGSGSGTEFTLTISSLQPDDFATYYCQQFKSLSFTFGGGTKVEIK
notes: IgG

Substitutions are numbered along the chain they refer to.

This experiment addresses T1, non-activatable Factor X (FXn) (Homo sapiens (Human), UniProt P00742 41-488, single biotin on the C-terminal BioTag).
T1 construct: also called BIIB-FX-015
Kind of experiment: BLI; class meaning: paragraph 285. For orientation: In BLI a coated tip is dipped into the sample, and binding shifts an interference pattern.
In the case of B1, the binding result is “binds”.
The same measure for B2: “binds”; for B3: “binds”; for B4: “binds”.
Under B5 stands “binds”; under B6, “binds”; under B7, “binds”.
Under B8 stands “binds”; under B9, “binds”; under B10, “binds”.
Regarding B11, the binding result is reported as “binds”.
Under B12 stands “binds”; under B13, “binds”; under B14, “binds”.
Under B15 stands “binds”; under B16, “binds”.
The same measure for B17: “binds”; for B18: “binds”.
